From paper PMC2034464 (Nucleic Acids Research, 2007) come the findings set out here.

Assay [1] concerns the target T1, MutSα (MSH2/MSH6 heterodimer) (human, UniProt P43246 1-934; P52701 1-1360). Nature of the assay: ELISA.
In assay [2] the target is T2, MutLα (MLH1/PMS2 heterodimer) (human, UniProt P40692 1-756; P54278 1-862). As to the kind of experiment: ELISA.
The target in assay [3] is T3, MutSβ (MSH2/MSH3 heterodimer) (human, UniProt P43246 1-934; P20585 1-1137). As to the kind of experiment: ELISA. (In general: ELISA stands for enzyme-linked immunosorbent assay.)
T3 sequence (P43246 whole entry, chain 1 of 2): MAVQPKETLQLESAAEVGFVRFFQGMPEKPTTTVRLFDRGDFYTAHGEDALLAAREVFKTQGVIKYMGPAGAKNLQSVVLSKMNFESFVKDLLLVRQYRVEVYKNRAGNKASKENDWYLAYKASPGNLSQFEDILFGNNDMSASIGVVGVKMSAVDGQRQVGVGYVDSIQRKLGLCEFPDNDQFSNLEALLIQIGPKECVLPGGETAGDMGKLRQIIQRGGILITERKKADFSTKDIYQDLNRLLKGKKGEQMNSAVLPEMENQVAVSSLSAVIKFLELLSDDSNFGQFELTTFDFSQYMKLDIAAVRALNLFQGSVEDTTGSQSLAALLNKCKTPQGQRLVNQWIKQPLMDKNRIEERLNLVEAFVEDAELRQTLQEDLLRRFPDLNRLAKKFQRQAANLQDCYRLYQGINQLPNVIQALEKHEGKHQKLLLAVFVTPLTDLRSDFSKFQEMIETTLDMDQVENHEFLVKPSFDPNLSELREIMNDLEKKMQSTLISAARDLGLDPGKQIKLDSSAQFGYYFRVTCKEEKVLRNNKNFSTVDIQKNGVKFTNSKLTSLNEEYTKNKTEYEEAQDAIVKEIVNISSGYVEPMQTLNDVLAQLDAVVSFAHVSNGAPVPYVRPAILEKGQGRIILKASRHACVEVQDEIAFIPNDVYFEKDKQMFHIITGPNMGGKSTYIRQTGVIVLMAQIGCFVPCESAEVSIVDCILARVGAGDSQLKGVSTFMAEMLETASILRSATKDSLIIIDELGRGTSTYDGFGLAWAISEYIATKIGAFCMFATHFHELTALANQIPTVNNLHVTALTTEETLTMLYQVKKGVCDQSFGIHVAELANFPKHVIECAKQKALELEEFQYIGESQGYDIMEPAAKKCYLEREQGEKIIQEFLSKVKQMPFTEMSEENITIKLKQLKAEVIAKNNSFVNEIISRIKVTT
T3 sequence (P20585 whole entry, chain 2 of 2): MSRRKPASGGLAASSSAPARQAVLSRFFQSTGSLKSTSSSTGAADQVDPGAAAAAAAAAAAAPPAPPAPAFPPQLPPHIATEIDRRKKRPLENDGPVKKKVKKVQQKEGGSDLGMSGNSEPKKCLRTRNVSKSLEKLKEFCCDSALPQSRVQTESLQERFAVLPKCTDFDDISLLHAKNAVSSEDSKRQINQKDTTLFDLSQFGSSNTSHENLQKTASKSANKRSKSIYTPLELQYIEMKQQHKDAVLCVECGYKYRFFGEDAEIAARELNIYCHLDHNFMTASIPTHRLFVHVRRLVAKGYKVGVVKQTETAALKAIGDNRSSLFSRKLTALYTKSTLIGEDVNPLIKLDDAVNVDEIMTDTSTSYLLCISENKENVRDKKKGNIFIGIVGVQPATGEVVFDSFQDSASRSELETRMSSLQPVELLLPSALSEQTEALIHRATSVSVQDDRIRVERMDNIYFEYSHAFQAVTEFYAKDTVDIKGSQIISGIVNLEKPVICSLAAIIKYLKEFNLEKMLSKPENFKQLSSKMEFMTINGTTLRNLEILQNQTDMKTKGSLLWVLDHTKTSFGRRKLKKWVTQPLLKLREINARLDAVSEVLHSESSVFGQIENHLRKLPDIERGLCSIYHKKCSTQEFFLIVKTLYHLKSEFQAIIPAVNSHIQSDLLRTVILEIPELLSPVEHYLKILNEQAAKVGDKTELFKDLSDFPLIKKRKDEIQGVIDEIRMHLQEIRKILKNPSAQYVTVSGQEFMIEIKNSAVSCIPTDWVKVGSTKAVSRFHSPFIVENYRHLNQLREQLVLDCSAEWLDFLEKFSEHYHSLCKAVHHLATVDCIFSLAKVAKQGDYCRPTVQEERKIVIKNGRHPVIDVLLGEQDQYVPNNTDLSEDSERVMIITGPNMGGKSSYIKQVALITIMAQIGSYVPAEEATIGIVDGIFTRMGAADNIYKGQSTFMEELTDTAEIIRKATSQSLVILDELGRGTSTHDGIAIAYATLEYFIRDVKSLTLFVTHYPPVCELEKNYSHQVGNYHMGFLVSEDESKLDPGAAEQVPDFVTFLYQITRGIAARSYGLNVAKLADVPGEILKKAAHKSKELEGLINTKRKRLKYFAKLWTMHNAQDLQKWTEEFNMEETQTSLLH
Assay [4] deals with T3, MutSβ (MSH2/MSH3 heterodimer). As to the kind of experiment: pull-down.
For assay [5], the target named is T1, MutSα (MSH2/MSH6 heterodimer). Nature of the assay: pull-down.
The target in assay [6] is T2, MutLα (MLH1/PMS2 heterodimer). Nature of the assay: pull-down.

T2 sequence (P40692 whole entry, chain 1 of 2): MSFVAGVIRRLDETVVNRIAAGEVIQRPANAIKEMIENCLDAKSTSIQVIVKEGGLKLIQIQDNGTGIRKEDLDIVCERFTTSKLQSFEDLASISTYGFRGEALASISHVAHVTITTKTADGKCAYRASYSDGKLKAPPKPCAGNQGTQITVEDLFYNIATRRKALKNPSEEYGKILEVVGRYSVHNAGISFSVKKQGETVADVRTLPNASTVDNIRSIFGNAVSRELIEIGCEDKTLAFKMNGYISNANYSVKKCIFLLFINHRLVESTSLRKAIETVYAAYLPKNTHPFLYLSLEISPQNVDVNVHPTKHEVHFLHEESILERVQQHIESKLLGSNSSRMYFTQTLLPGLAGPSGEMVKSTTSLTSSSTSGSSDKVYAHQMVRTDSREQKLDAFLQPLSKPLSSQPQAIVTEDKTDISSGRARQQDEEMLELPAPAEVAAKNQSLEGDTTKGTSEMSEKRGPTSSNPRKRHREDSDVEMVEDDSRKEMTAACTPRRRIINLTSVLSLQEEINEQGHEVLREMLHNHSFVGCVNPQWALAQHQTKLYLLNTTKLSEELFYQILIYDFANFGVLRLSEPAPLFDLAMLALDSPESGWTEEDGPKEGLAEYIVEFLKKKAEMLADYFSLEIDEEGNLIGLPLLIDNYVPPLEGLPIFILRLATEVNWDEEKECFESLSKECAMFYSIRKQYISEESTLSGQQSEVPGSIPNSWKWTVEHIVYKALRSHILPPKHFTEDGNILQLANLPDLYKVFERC
T2 sequence (P54278 whole entry, chain 2 of 2): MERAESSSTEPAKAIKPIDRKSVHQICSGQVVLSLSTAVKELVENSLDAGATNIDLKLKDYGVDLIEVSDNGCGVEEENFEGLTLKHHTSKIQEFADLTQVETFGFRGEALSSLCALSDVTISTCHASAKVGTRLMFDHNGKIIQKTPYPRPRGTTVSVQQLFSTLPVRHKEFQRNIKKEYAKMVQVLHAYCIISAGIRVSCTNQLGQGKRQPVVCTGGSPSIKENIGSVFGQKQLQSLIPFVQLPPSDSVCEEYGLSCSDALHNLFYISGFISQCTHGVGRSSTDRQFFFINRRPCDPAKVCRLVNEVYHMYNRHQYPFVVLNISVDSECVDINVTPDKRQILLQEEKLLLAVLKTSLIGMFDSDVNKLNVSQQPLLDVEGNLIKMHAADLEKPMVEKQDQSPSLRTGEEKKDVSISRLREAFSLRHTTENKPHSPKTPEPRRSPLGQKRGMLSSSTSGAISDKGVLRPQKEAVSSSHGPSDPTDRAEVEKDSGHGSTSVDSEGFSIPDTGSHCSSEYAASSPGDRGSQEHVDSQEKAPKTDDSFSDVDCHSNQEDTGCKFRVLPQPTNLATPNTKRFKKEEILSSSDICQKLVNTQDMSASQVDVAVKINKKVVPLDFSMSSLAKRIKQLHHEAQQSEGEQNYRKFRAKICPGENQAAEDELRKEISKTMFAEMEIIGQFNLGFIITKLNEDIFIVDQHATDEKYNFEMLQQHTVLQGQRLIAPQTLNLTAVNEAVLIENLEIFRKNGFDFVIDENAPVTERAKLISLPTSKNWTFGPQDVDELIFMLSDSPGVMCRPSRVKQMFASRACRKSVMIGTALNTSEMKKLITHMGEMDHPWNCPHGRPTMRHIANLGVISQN

B1: Recombinant human WRN (Werner syndrome helicase) (natural protein)
chain: not shown
Take B1: the values for the Kd in assay [1], in assay [2] and in assay [3] were 38.5 nM, 34.9 nM and 8.8 nM, respectively.

B2: GST-WRN fragment 949–1432 (domain or fragment, human, UniProt Q14191 949-1432, looked up)
chain: MDDSEDTSWDFGPQAFKLLSAVDILGEKFGIGLPILFLRGSNSQRLADQYRRHSLFGTGKDQTESWWKAFSRQLITEGFLVEVSRYNKFMKICALTKKGRNWLHKANTESQSLILQANEELCPKKLLLPSSKTVSSGTKEHCYNQVPVELSTEKKSNLEKLYSYKPCDKISSGSNISKKSIMVQSPEKAYSSSQPVISAQEQETQIVLYGKLVEARQKHANKMDVPPAILATNKILVDMAKMRPTTVENVKRIDGVSEGKAAMLAPLLEVIKHFCQTNSVQTDLFSSTKPQEEQKTSLVAKNKICTLSQSMAITYSLFQEKKMPLKSIAESRILPLMTIGMHLSQAVKAGCPLDLERAGLTPEVQKIIADVIRNPPVNSDMSKISLIRMLVPENIDTYLIHMAIEILKHGPDSGLQPSCDVNKRRCFPGSEEICSSSKRSKEEVGINTETSSAERKRRLPVWFAKGSDTSKKLMDKTKRGGLFS
On to B2, for which the binding result in assay [4] is reported as “binds”.

B3: GST-WRN fragment 500–946 (domain or fragment)
chain: not shown
Turning to B3, the binding result in assay [5], in assay [6] and in assay [4] was “binds” each time.

B4: GST-WRN fragment 51–449 (domain or fragment, human, UniProt Q14191 51-449, looked up)
chain: GSIVYSYDASDCSFLSEDISMSLSDGDVVGFDMEWPPLYNRGKLGKVALIQLCVSESKCYLFHVSSMSVFPQGLKMLLENKAVKKAGVGIEGDQWKLLRDFDIKLKNFVELTDVANKKLKCTETWSLNSLVKHLLGKQLLKDKSIRCSNWSKFPLTEDQKLYAATDAYAGFIIYRNLEILDDTVQRFAINKEEEILLSDMNKQLTSISEEVMDLAKHLPHAFSKLENPRRVSILLKDISENLYSLRRMIIGSTNIETELRPSNNLNLLSFEDSTTGGVQQKQIREHEVLIHVEDETWDPTLDHLAKHDGEDVLGNKVERKEDGFEDGVEDNKLKENMERACLMSLDITEHELQILEQQSQEEYLSDIAYKSTEHLSPNDNENDTSYVIESDEDLEMEML
For the molecule B4, the binding result in assay [6] is “binds”.

B5: GST-WRN fragment 500–1149 (domain or fragment)
chain: not shown
Take B5: in assay [4], the binding result was “binds”.

In general, Kd refers to the free concentration of one partner at which half of the binding sites on the other are occupied at equilibrium, for simple one-to-one binding. High values mean weaker binding, low ones tighter binding.
